Residue numbers refer to the chain shown, from its start. In names and notes the source's numbering stands.
B1: Ab52 (10x-L8N-c89) (antibody, V domains shown)
VH: QVQLVQSGSEVKKPGSSVKVSCRASGDTFSSHSLSWVRQAPGQGLEWMGRIVPMFGITNYAQNFQGRVTFTADKSTSTAYMELSSLRSEDTAVYYCARAGTMITFGGLTDDGQLNWFDPWGQGTLVTVSS
VL: DVVLTQSPLSLSVTLGQPASISCRSSQSLEYSDGDTYLNWFHQRPGQSPRRLIYKVSNRDSGVPDRFSGSGAGTDFTLKISKVEAEDVGVYYCMQGTNWPPNFGPGTKVDIK
B2: SS6V11-E7 (antibody, V domains shown)
VH: QVQLQESGPGLVKPSETLSLTCTVSGGFIGPHYWSWVRQPPGKGLEWIGYIYISGSTNYNPSLKSRLTISVDMSKSQFSLTLSSATAADTAVYYCARGGGYLETGPFEYWGQGTLVTVSS
VL: DIVMTQSPLSLPVTPGEPASISCRSSQSLLQNNGYNYLAWYLQKPGQSPQLLIYLSSTRASGVPDRFSGSGSGTDFTLKISRVEAEDVGVYYCMQSLQIPGTFGQGTRLEIK
B3: LyCov-1404 (bebtelovimab) (antibody, V domains shown)
VH: QITLKESGPTLVKPTQTLTLTCTFSGFSLSISGVGVGWLRQPPGKALEWLALIYWDDDKRYSPSLKSRLTISKDTSKNQVVLKMTNIDPVDTATYYCAHHSISTIFDHWGQGTLVTVSS
VL: QSALTQPASVSGSPGQSITISCTATSSDVGDYNYVSWYQQHPGKAPKLMIFEVSDRPSGISNRFSGSKSGNTASLTISGLQAEDEADYYCSSYTTSSAVFGGGTKLTVL
B4: Ab2 (H12.2) (antibody, V domains shown)
VH: EFQLVESGGRLVRPGGSLRLSCVASEIIVSRNYMSWIRQAPGKGLEWVSILYAGGTTYYADSVKGRFTISRDNSKNTLYLQLNSLRVEDTAIYYCVRPIVGGRGGMDVWGQGTTVTVSS
VL: DIQMTQSPSSLSASVGDRVTITCQASQDINKYLNWYQQKPGKAPKLLIYDASNLEPGVPSRFSGSGSGTDFVFTITSLQPEDIATYYCHYYDDVPYTFGQGTQLEIK
B5: Ab5 (10x-L8N-c25) (antibody, V domains shown)
VH: B4 VH with E1D, R10G, I28T, L51I, A53P, L78M, V87P, G101R, R103G
VL: B4 VL with S52T, H89Q
B6: Ab1 (B11.2) (antibody, V domains shown)
VH: EVQLVESGGGLVQPGGSLRLSCAASEIIVSRNYMTWVRQAPGKGLEWLAVLYAGGSSFYADSVKGRFTISRDNSKNTLFLQMNSLRAEDTAVYYCARDLSLSGGFDYWGQGALVTVSS
VL: DIQLTQSPSFLSASVGDRVTITCRASQGISNYLAWYQQNPGKAPKLLIYAVSTLHSGVPSRFSGSGSGTEFTLTISSLQPEDFATYYCQHLNTDSCTFGQGTKLEIK

Columns and labels:
BQ.1.1 spike protein [1] = molecular target: T1, BQ.1.1 spike protein (SARS-CoV-2 variant BQ.1.1, UniProt P0DTC2 14-1273); assay: cell-based or functional assay
[2] = molecular target: SARS-CoV-2 B.1.1.529.5 (BA.5) RBD (SARS-CoV-2 B.1.1.529.5 (BA.5), UniProt P0DTC2 319-541); assay: multiplex sVNT, RBD-coated beads, PE-hACE2 as competitor
[3] = molecular target: SARS-CoV-2 B.1.617.2 (delta) RBD (SARS-CoV-2 B.1.617.2 (delta), UniProt P0DTC2 319-541); assay: as above
[4] = molecular target: SARS-CoV-2 B.1.351 (beta) RBD (SARS-CoV-2 B.1.351 (beta), UniProt P0DTC2 319-541); assay: as above
SARS-CoV-2 XBB.1 RBD = SARS-CoV-2 XBB.1 RBD (SARS-CoV-2 XBB.1, UniProt P0DTC2 319-541); assay: as above
[5] = molecular target: SARS-CoV-2 B.1.1.529.1 (BA.1) RBD (SARS-CoV-2 B.1.1.529.1 (BA.1), UniProt P0DTC2 319-541); assay: as above
BQ.1.1 spike protein [6] = molecular target: T1, BQ.1.1 spike protein; assay: pVNT (FIG. 1E, 1F, 2A, 3 cited); no direct binding assay described
XBB.1 spike protein = XBB.1 spike protein (SARS-CoV-2 variant XBB.1, UniProt P0DTC2 14-1273); assay: cell-based or functional assay

| Binder | IC50 (pVNT) (BQ.1.1 spike protein [1]) | binding result (SARS-CoV-2 XBB.1 RBD) | concentration required to effectively neutralize (pVNT) (XBB.1 spike protein) | times less than the concentration of E7 (XBB.1 spike protein) | concentration required to effectively neutralize (pVNT) (BQ.1.1 spike protein [1]) | also measured |
| --- | --- | --- | --- | --- | --- | --- |
| B1 | ≤ 550 ng/ml |  |  |  |  |  |
| B2 |  | binds |  |  |  | binding result [2]: binds; binding result [3]: binds; binding result [4]: binds; binding result [5]: binds |
| B3 |  |  |  |  |  | binding result (BQ.1.1 spike protein [6]): no binding |
| B4 | ≤ 300 ng/ml | binds | 8.5 ng/ml | ~40 times | 16.6 ng/ml |  |
| B5 | ≤ 300 ng/ml |  | 40.8 ng/ml | ~8 times | 57.5 ng/ml | times less than the concentration of E7 (BQ.1.1 spike protein [1]): ~10 times |
| B6 | ≤ 300 ng/ml |  | 11.6 ng/ml |  | 16.5 ng/ml |  |
